Measured values reported in PMC11035769.

Target: CD16a-His (human) (UniProt P08637)
Assay: BLI; CD16a-His (250 ng/mL) immobilised on HIS1K biosensors; analytes at 3200 - 50 nM or 400 - 6.25 nM; 1X kinetics buffer (PBS pH 7.4, 0.02% Tween-20, 0.1% bovine serum albumin); 300 s association, 600 s dissociation; 1:1 fitting model; geometric means

Chain of UniProt P08637 (P08637 17-208): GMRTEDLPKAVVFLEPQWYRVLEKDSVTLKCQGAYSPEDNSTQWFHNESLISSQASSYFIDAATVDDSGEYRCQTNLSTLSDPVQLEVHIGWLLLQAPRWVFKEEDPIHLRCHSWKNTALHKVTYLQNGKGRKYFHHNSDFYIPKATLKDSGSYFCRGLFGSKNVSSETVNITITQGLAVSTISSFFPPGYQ

## Immune Globulin Intravenous (Human) (antibody)
  Kd: 244 nM
  koff: 0.0402 s⁻¹
  kon: 165000 M⁻¹ s⁻¹
